Where “and” joins values, the source holds several entries; their conditions need not be identical. Equal values may be shown once.
Tests used:
[1] = target: B-cell lymphoma extra-large protein (Bcl-xL), first 209 amino acids with N-terminal avitag (UniProt Q07817); experiment: equilibrium AMMP, divalent model
[2] = target: B-cell lymphoma extra-large protein (Bcl-xL), first 209 amino acids with N-terminal avitag (UniProt Q07817); experiment: equilibrium ELISA, divalent model
[3] = target: B-cell lymphoma extra-large protein (Bcl-xL), first 209 amino acids with N-terminal avitag (UniProt Q07817); experiment: forward equilibrium assay, Kd-only fit, divalent model
[4] = target: B-cell lymphoma extra-large protein (Bcl-xL), first 209 amino acids with N-terminal avitag (UniProt Q07817); experiment: forward equilibrium assay, Kd-only fit, monovalent model (said to fit poorly)
[5] = target: B-cell lymphoma extra-large protein (Bcl-xL), first 209 amino acids with N-terminal avitag (UniProt Q07817); experiment: forward equilibrium assay, Kd and [L]0 fit simultaneously, monovalent and divalent models
[6] = target: B-cell lymphoma extra-large protein (Bcl-xL), first 209 amino acids with N-terminal avitag (UniProt Q07817); experiment: Kd2 (monovalently bound mAb to a second Bcl-xL), divalent model, reverse assay only, known [L]0
[7] = target: B-cell lymphoma extra-large protein (Bcl-xL), first 209 amino acids with N-terminal avitag (UniProt Q07817); experiment: Kd1 (free mAb to Bcl-xL), divalent model, forward and reverse equilibrium assays combined, known [L]0
[8] = target: B-cell lymphoma extra-large protein (Bcl-xL), first 209 amino acids with N-terminal avitag (UniProt Q07817); experiment: Kd2 (monovalently bound mAb to a second Bcl-xL), divalent model, reverse assay only, Kd and [L]0 fit simultaneously
[9] = target: B-cell lymphoma extra-large protein (Bcl-xL), first 209 amino acids with N-terminal avitag (UniProt Q07817); experiment: Kd1 (free mAb to Bcl-xL), divalent model, forward and reverse equilibrium assays combined, Kd and [L]0 fit simultaneously
[10] = target: B-cell lymphoma extra-large protein (Bcl-xL), first 209 amino acids with N-terminal avitag (UniProt Q07817); experiment: reverse equilibrium assay, divalent model; percent of monovalently bound mAb that does not interact with immobilized Bcl-xL

B-cell lymphoma extra-large protein (Bcl-xL), first 209 amino acids with N-terminal avitag, sequence (Q07817 other isoform, or with tags, fused parts or gaps): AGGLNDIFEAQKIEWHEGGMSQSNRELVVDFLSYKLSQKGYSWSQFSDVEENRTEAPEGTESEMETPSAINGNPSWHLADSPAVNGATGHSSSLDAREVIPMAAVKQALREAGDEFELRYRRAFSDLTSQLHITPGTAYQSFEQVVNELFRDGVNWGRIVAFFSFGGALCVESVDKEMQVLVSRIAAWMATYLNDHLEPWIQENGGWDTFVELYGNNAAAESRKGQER

- Kd [1]: 12 pM
- Kd [2]: 20 pM
- Kd [3]: 14 pM
- Kd [4]: 38 pM
- Kd [5]: 11 pM
- Kd [6]: 3300 pM
- Kd [7]: 21 pM
- Kd [8]: 4000 pM
- Kd [9]: 19 pM
- percent of monovalently bound mAb not interacting with immobilized Bcl-xL [10]: 74% and 73%
Substance: 54H6 monoclonal antibody against Bcl-xL (commercial)

Source: patent US20180172683A1, “METHODS FOR ANALYZING THE INTERACTION BETWEEN A TARGET PROTEIN AND A LIGAND” (UNIVERSITY OF SOUTHERN CALIFORNIA, priority 2015, published 2018)
